What was measured:
[1] = biological target: T1, PHO36 (endogenous, wild-type strain BWG7a) (Saccharomyces cerevisiae, UniProt Q12442 1-317); test: cell-based or functional assay
T1 sequence (looked up): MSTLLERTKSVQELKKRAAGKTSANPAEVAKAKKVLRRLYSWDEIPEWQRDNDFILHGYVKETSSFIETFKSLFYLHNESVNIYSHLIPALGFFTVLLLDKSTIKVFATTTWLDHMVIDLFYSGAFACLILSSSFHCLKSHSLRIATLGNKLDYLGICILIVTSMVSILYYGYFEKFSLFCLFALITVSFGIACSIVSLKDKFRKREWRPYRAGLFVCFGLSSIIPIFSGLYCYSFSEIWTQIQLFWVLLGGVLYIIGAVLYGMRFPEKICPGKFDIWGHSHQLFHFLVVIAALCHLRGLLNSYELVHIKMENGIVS

[2] = biological target: T2, PHO36t (product of the truncated PHO36 cDNA isolated in the screen) (Saccharomyces cerevisiae, UniProt Q12442 116-317, limits assumed); test: cell-based or functional assay
T2 sequence (looked up): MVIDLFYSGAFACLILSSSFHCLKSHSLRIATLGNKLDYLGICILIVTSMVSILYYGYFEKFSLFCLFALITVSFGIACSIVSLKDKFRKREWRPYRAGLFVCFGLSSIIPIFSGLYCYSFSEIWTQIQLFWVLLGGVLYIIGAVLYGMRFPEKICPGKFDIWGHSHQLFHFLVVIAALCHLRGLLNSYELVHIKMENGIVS

[3] = biological target: T3, PHO36MH (PHO36 with c-myc epitope and hexa-His tag fused in-frame at the C-terminus) (Saccharomyces cerevisiae, UniProt Q12442 1-317); test: 35S-osmotin binding to yeast spheroplasts, scintillation counting, non-specific binding subtracted
T3 construct: whole, on cells; Overexpressed in BWG7a from the multicopy plasmid pPHO36MH; It was used as a detergent-solubilised total membrane fraction in the pull-down and on spheroplasts in the 35S-osmotin assay; Bands of about 36 and 72 kDa were read as monomers and dimers; also called c-myc tagged PHO36; recombinant PHO36MH; not shown: c-myc tag; hexa-His tag
T3 sequence (looked up): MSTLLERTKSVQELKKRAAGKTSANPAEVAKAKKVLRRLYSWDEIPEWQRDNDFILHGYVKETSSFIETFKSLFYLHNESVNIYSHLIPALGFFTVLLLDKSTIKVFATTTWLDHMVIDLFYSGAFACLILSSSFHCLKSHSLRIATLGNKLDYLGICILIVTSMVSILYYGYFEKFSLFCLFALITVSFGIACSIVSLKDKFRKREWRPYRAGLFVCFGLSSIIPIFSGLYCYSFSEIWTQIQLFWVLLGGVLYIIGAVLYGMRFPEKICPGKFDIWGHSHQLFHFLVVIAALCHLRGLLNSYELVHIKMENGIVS
Protocol: After extensive washing, bound proteins were dissociated, separated by SDS-PAGE and the c-Myc tag was immunodetected with mycl-9E10 antibodies. B. Spheroplasts (10⁹ml⁻¹) derived from the Δpho36 mutant (Δpho36), and the wild-type strain BWG7a carrying the plasmid pPHO36MH (pPHO36) were incubated with ³⁵S-osmotin (0.4 μM, 0.16 μCi) for 1 hr, without (none) or with a 10-fold molar excess of A9, BSA, or osmotin as competitors. After extensive washing, ³⁵S-osmotin retained on spheroplasts was counted.
³⁵S-Osmotin Binding Assay. Osmotin was radiolabeled to a specific-activity of 12 Ci mmol⁻¹ using the ³⁵SLR reagent (Amersham), according to manufacturer's instructions. Yeast cells were grown YPD medium until A₆₀₀ₙₘ 0.6 and then harvested by centrifugation. The pellet was resuspended in 1M sorbitol (A₆₀₀ₙₘ 6) and treated with lyticase (100 U ml⁻¹). After digestion of the cell wall was completed, spheroplasts were collected by centrifugation, washed twice with 1M sorbitol and resuspended in 1M sorbitol (10⁹ml⁻¹). The binding reaction was initiated by the addition of 2 μl of 35S-osmotin (1 μCi, 3 μg) to 300 μl of spheroplasts (0.3×10⁹). […] Spheroplasts were collected by centrifugation, washed twice, resuspended 1M sorbitol (50 μl) and counted in a liquid scintillation counter in 5 ml of EcoLume™ (ICN Biomedicals). […]

[4] = biological target: T4, STE7-Myc fusion protein (Saccharomyces cerevisiae, UniProt P06784 1-515, limits assumed); test: pull-down with osmotin-Sepharose 4B, anti-myc (myc1-9E10) immunoblot
T4 construct: Used as a cell extract of BWG7a expressing the fusion, as a control for the c-myc tag; also called c-myc tagged STE7; pNC267 product; not shown: Myc tag
T4 sequence (looked up): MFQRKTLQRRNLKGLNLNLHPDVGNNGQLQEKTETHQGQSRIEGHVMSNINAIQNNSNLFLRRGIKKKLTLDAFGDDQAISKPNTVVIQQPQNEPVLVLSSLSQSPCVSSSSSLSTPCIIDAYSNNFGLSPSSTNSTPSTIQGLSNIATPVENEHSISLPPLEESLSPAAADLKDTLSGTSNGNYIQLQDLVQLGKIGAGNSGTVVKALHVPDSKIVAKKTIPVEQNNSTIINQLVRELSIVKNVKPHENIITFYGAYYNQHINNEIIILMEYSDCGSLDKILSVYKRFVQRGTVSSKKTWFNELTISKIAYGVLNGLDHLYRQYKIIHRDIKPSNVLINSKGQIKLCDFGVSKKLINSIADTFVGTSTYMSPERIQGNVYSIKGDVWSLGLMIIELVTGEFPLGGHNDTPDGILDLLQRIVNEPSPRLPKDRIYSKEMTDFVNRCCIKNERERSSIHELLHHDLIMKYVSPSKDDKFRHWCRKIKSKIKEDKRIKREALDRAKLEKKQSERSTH
Protocol: FIG. 4: PHO36 Interacts Specifically with Osmotin In Vitro and In Vivo. A. Osmotin-Sepharose 4B was incubated with cell extract of the strain BWG7a expressing the fusion protein STE7-Myc (lane 1), total membrane fraction purified from the strain ΔPHO36 (lane 2) or total membrane fraction purified from the strain BWG7a expressing c-myc tagged PHO36 from the plasmid pPHO36MH (lanes 3-8) in the absence (lanes 1, 2, and 5) or presence of the competitor proteins A9 (100 μg, lane 3; or 10 μg, lane 7), osmotin (Osm; 100 μg, lane 4; or 10 μg, lane 6), or BSA (100 μg, lane 8). After extensive washing, bound proteins were dissociated, separated by SDS-PAGE and the c-Myc tag was immunodetected with mycl-9E10 antibodies. B. Spheroplasts (10⁹ml⁻¹) derived from the Δpho36 mutant (Δpho36), and the wild-type strain BWG7a carrying the plasmid pPHO36MH (pPHO36) were incubated with ³⁵S-osmotin (0.4 μM, 0.16 μCi) for 1 hr, without (none) or with a 10-fold molar excess of A9, BSA, or osmotin as competitors. After extensive washing, ³⁵S-osmotin retained on spheroplasts was counted.
Protein interaction assays in solution. Osmotin was coupled to CNBr-activated Sepharose 4B (Pharmacia Biotech) according to the manufacturer's instructions. […]

IC50 for osmotin of the wild type strain (compared with the PHO36 disruptant) [1]: 0.6 µM | fold change of IC50 for osmotin, cells overexpressing PHO36t against control cells with the empty vector [2]: 3 fold | fold 35S-osmotin bound, spheroplasts of the PHO36MH-overexpressing strain against the wild-type strain with empty vector [3]: ~3 times | binding result [4]: no binding
B1: osmotin (ligand)
chain: ATIEVRNNCPYTVWAASTPIGGGRRLDRGQTWVINAPRGTKMARVWGRTNCNFNAAGRGTCQTGDCGGVLQCTGWGKPPNTLAEYALDQFSGLDFWDISLVDGFNIPMTFAPTNPSGGKCHAIHCTANINGECPRELRVPGGCNNPCTTFGGQQYCCTQGPCGPTFFSKFFKQRCPDAYSYPQDDPTSTFTCPGGSTNYRVIFCPNGQAHPNFPLEMPGSDEVAK
notes: Purified osmotin (26 kDa globular protein, mostly a monomer in solution); also called tobacco PR-5 protein; 35S-osmotin
IC50 for osmotin of control cells transformed with the empty vector (viable counts after one hour of osmotin treatment, galactose medium) [1]: 0.6 µM | IC50 for osmotin of cells overexpressing PHO36t (viable counts after one hour of osmotin treatment, galactose medium) [2]: 0.2 µM
